Measurements as given in a protein production outcome set (Wang et al. 2014).

Assay: label from the status in PepcDB records

Sequence: MKFFGFYRPIALIAGITVSASILTSVATAAESPTSFQAITPAFSSSSAPEADAEANTSEATADLLYVAENQLLIKLSNAVVEDVNGEILMKDNKGTLLENLTAELQAQPGFSIEKVDSHTALLTMNPDEVPDLQDWRCGVGALSGGVAGVVATGLALAALGVATGGTGFAVLAAGGLAGYGTGAVANC
- protein production: failed

Sequence: MKFFSVFILAILSILCMPLIASTTNYDETLTKIETLQHSDLPAAINLIKTIESEFGAMSRLQQGRVLLFKGAASIYSGQYQTAIELLGQAEALLKDSEMLFSAYSYEATAYIALRHFNDAFIAMGKSLGLIERIEDTNLKRASYLRLASLYSAMGISEEVATYATKALALASESDVKDICGARLYLSVHQLEIASYAQAFDEFKSTRSYCESSGYPLIANIALKGMGESSLRLNEPQLAISYLLDSLKGYESFNFELEINSVHELLSEAYLLLQDSTKAELHAQYVMNLVDDSSNTELKHGASGVLAKIYAQKQQFEQAYEYSRKEQHYNQLIFDESRMKTLAYQAAKFNADEQAREINLLNKERELYIAQQMVKEREYTNMLMFITILVGGLFFLAILLVVGNLQKRRFMRMAKMDALTGVLNRGAGQDLGENMFVQAAARGGDYCVILFDLDHFKRINDSYGHGTGDWALKKVVEVLKPHIRNGDVFARIGGEEFALFLPYANEAKGLDVAEQCRSRIEAIDTHLSGHKFTITASFGVSGMTKDDLSLDPLLHRADMALYAAKSNGRNCVSCYQDALMCDKRVTNLTSELARQP
- protein production: failed

Sequence: MKFHVIDRENWNREQYFEHYLELKCTFSMTVNVDITLLIKKVHQKGIKFYPTFIYIISRIINKHKEFRTCFNDEGVLGYWEEMIPSYTIFHKDDKSFSSIWTDYSSDFRIFYKNYEEDMRCYASVHGLLTKENIPPNIFPISGIPWTSFTGFNLNINNDGDFLLPIITCGKYFNEENKIMLPVSLQVHHSVCDGYHVSRFIEDLQELSNSCNEWLK
- protein production: failed

Sequence: MKFQLYIQPKLDILQGNIVEYEILLRDDSEVPRFPLSELEAVLADEELYLTFCEWFSDAFFDVLKKYPNDRFAINIAPQQLFYMETLHMLDKLRSESHRITIEMTEDIFDVPAHKRHLNADDKDAFILNKIKIIHGLGYHVAVDDVGCGLNSLERVLSYLPYIIELKFSLIHFNNIDLEDLLLFIKAWANFAHKNNLDFVVEGIETKETMAILESHGVSIFQGYLVNKPFPV
- protein production: failed

Sequence: MKFSVIIPVYNASKFIDYCVESVLSQSYSDIEVILINDGSTDKSGEICEGFARKDNRVKVYHQENQGAAVARNHGIRKATGDYLLFPDSDDYYASSLGFEEINNQLEETKADVLIHDSFVERGNGTPDDLHSSLLREEVLKLEKIEFIEYLIKKDKLTRSAWTKVISRSFLSKNNILFPTVRQTEDTGFTAELVRLGNSFDWYEKQFYAYVKHDESVTAKRLPESIIHDSFSVIKTAVINGELIKDSRYREAYYSYLAYPYVVLIGQTKEAINRGVIKENTILNDLKQYSFLMKYNLNPKLKVIKHLYKLFGYLMIVFLLSVMMELTYRKQGV
- protein production: failed

Sequence: MKGKEIMEIKRILVSRTDKIGDLVLSIPSFFMLKKMYPNAELVVIVRKYNVDIVKNLPYIDRIVIIDEYSKAELLEKIAYFKADVFIALYNDSYIASLARASKAKIKIGPISKLSSFFTYNKGVLQKRSLSLKNEGQYNLDLVTKLDRKRFAILYELNTKLILTDENKKVADVYFKENSIEGKTLVVNPFIGGSAKNITDEQYISILKKIKEKMPDLNIIITSYTTDEERTEKLCKDIGKDKIFAFSNGASILNTASIIDRADVYFGASTGPTHIAGALGKKIVAIYPHKKTQSPTRWGVLGNSNVRYIIPDENNPNEDYKNPYFDNFTKDMEDKVVKAILEALK
- protein production: failed

Sequence: MKGKLQNIHPLGMTIIIGTLFARFATSMSIPFLAIYLTTVKGVSAGMTGAIIGTSALVGVFASFIGGNLSDRFGRKMIMLWSMIVWMFVFIGFSLADHVLSFFLLNALNGLCRSFFEPTSRALLSDLTKPEYRLLVYNLRYGAINVGVAIGPIVGLQIGSAKSTIPFLVAAGVYILYTAILAFQFKKYPMEKKKVSTEKPVTMLNAMRILRKDIVFLVALVGIILSNCGFSHLTTTVSQYFANAHIFQDGVKVFSYMLALNAIVVVVIQYPVIQICKKYTPLVSIMVGTLFVSGGLFGFGIIESTLGAAICTIIFTIGEVLMFSMTDVFIDDIAVAHLKGTYFGAMGFSGIGAVIGPWFGGVLLDYYGYQNGFVVFSALAIFSTVAFPVLLVTKSLLKKRYDGNSNIELHAK
- protein production: failed

Sequence: MKGKVVSYLAAKKYGFIQGDDGESYFLHFSELLDKKDEGKLVKGSMVHFDPTPTPKGLAAKAISLPEVFIRERLVDFFTTRDNRPKNGTVIASFPIATRFFKDPSEGRRHLEQLAKHCGCNAVLNVSFEKDTFSKGNYRYTVHAFKGELALVTEKVPADAQELVVASAELLEKRKADVEQAVKQMSEAENLARQKQLSGCLGTLAIITLIPLALVLTAIAVFPA
- protein production: failed

Sequence: MKGRIELGDVTPHNIKQLKRLNQVIFPVSYNDKFYKDVLEVGELAKLAYFNDIAVGAVCCRVDHSQNQKRLYIMTLGCLAPYRRLGIGTKMLNHVLNICEKDGTFDNIYLHVQISNESAIDFYQKFGFEIIETKKNYYKRIEPADAHVLQKSLRSPCAPPAGELQKAD
- protein production: failed

Sequence: MKGRLLQRLRQLSISNSLRGAFLTGALLTLIVSMVSLYSWHEQSSQVRYSLDEYFPRIHSAFLIEGNLNLAVDQLNEFLLAPNTTVRLQLRTQIIQHLDKIERLSQGLQLAERRQLAVILQDSRTLLAELDNALYNMFLVREKVSELSARLTGSSDDFTTELNSLVQDFTWQQGTLLDQIEANQGDAAQYLQRSREVQNEQQQVYTLAEIENQIVDDLRDRLNELKSGNNDGMLVETHIRYLENLKKTADENIRALDDWPSTITLRQTIDELLEIGMVKNKMPDTMRDYVAAQKALLDASRAREATLGRFRTLLEAQLGSSHQQMQTFNQRLEQIVRVSGGLILVATLLALLLAWGLNHYFIRSRLVKRFTALNQAVVQIGLGRTDSTIPVYGRDELGRIARLLRHTLGQLNMQRRQLEQEVAERKEIEADLRAMQDELIQTAKLAVVGQTMTTLAHEINQPLNALSMYLFTAGRAIEQGQSGQARNTLRKAEGLINRIDAIIRSLRQFYRRAELETPLYPVDARQTFVAAWELLAMRHQSRQGALSLPTDTVWVSGDEVRIQQVLVNVLANALDACSHDAVIAVTWQTQGEALEVYIADNGPGWPVALLPSLLKPFTTSKAVGLGIGLSISVSLMAQMKGDLRLASTLTRNACVVLQFSVTDVDDVE
- protein production: failed

Sequence: MKGYGEMAKNNPTRITAEPGKQEIIITREFDAPRELVFKAFTDPDLYTQWIGPRGFTTALKIFEPKNGGSWQYIQKDPEGNEYAFHGVNHDVTEPERIISTFEFEGLPEKGHVILDTARFEALPGDRTKLTSHSVFQTIEDRDGMLQSGMEEGINDSYERLDELLEKMKKLEHHHHHH
- protein production: not failed

Sequence: MKHAFDRFVQYLQKNYFSYWIVLGIDTFIALICTWVSFIGIHYITETSKEITSLFHILAISVISSILGSFLFHTYRNTIRFSQLKELWRLAGSALIKAVCIAMAIWLFLPQTGLHNSQKIVFVLFDGMLTFIAMVGFRIQLILVYELLLNMLNKKNMHILIYGIDDKSVALKVRLMNSSHYKVVGFCIYGTGDSIRRVADLPVYSFKDEECFNKLIHKKCIGGILFARYENTREEEDRLLQYCKRSGLKTLIAPSISEADENGSFHQWVRPIKIEDLLGRSEIHINMEEVMTEFCGKVVLVTGAAGSIGSELCRQLAQMNIKKLIMFDSAESPLHNVRLEFEKNYPDLDFVPVIGDVRVKERLRMVFETYQPQIIFHAAAYKHVPLMEENPCEAVLVNVVGSRQVADMAVEYGAEKMIMVSTDKAVNPTNVMGCSKRLAEIYVQSLGCAIREGKVKGHTKFITTRFGNVLGSNGSVIPRFKEQIENGGPVTVTHPDIIRFFMTIPEACRLVMEAATMGEGNEIFVFEMGKAVKIVDLATRMIELAGYRPGEDIEIEFTGLRPGEKLYEEVLSDKENTIPTENKKIMIAKVRHYEYTDILDTYTEFEKLSRSVQIMDTVKLMKRVVPEFKSKNSPRFEVLDR
- protein production: failed

Sequence: MKHASHKATTVSRQKFSLAKALFASGKGSHSVRAVRAVQSAGSDAVVLGLDPAIAEKINEIAPQTRRSIREAARAAERRSHILASASLAALVGTAAGALAFSNNEDATNSFVADPATTTTQIKRISDVTAASRSEARTDLSSSSVTAQSTNEGGWGLSNSDSTLDAKLMNRNNANNPVVSALVDADGDAVPAGFNPNHAVGTNSNNYPWGQCTWYAYQRRAELGLPSSGNFGNGGAWAASASALGYWVDNTPRHVGDAVVFAPGQADADGAYGHVAVLEKINADGSIEISESNAKGLGVISTRTFSAAEAGKFQYVHY
- protein production: failed

Sequence: MKHDKKNSKIIPFPNVKERLVHKGMGALKEKNYHEALRLFSEAKRYNDEESDIYLGMAICLLEIGELEEAKGICEKMLKEGHGHYFTVLQVYMTILIQLRQYEKVKETIEAVLEENKLPPESAEQFYKLLDFSRKMTEDPGPEDITEDLPETEEVDQERLLNDTEEQVKLLHGLKDRNLTSYIGLLKTILQNPSAHPVVKTMILQLLAESDHEKPTLVAKFGDSMTINPTETVKPDDMPILKHVLSVLDDTLGNENPTLYQAVEELWRRHIYVLYPFQPKYSNRELWAAALHKVGYEMHGIDIDKEELHILYEFNDRQLDEACALIKDIEEISYL
- protein production: failed

Sequence: MKHIFRFKNYFFHSKNNQLKRLLLVAFLLTGLWLTPQQGRVWGQEQPFVVKKIDLSQYGAAASIAQDPESKQLAIGFYNCNLIFLDANLNQDQKNNLFLKNCKRFFRARYGEFGSIPFLISSIYTGSSVLHNSQENFDIPLHKAAVTDSLILQDYLLSSSDDGSVTISRLISLSPPEVNTFKLYQSIGVARNLAFTHTSNPEVGKVAVSYDTGEIAIFNIDHDTARNPVEPSTFKTINSRINTFKFTPDGAKLLIGYFTGELVELDLATGAHKTLAKVNSWLNALDINSENLVAIADDQGFVKIISLTTGKIVEEHKISTTGINAVIFTDDQTVVAADATGMIYQGKLAGSN
- protein production: failed

Sequence: MKHKHGWASVVCCFVLFIVVCLSLTMHVQGAFRAAGHPEIGLLFFTLPGAVASFCSHRREVIRPLIGAMLAAPFCLVLMRVVFMPTRSFWQELAWLFSAVFWCALGALCYLFISSLFSHRRKKRR
- protein production: failed

Sequence: MKHLVTTALAYTNGPLHLGHARSTYIPADIYTRYLRLKGEEVIHVGGTDNHGVPITLTAEREGVKPIDIVDRYHNAIKADLDSLNVSFDTFGRTHSDIHIETAQEFYSKLKENGYIYEKEIEQFYCEKCDMYLADRYVEGICPFCEGEARGDHCEVCGRHLEPTELVNPYCIHCNSKPEIKRTTHYFFKLSAMQDVLKEYIENSPEMPEHVKNMALRWIEELHDWDVSRNIKWGVPIPGCDDQVMYVWIEAPIGYVSFTKQLGDLWKDYWLENTGDSKISHFIGKDITVHHAVFWPGILKGIGGYKMPNAVVSGGYLTLENKKMSTSKNWVVWVKDFIENFSSDYLRYFFMINAPLNRDTDFSWDDFQKRINTELIDIIGNFTHRTLVFTERKFGSTPVVDLNQLKDEDKKLISKCEDTLNRVDSLIREYNFKDALMEIIHLAKEGNGYFQGMAPWAIKDEERLKEVMYTCSVALKYIVYLLSSFMPEKTALLLEYMNEELDLEVRGNPLKKPKVIFTKVSDEDISRMKENLMKATKKAETKSDEKSKKVKSGEKMDIIDIDYFGNIDLRVGQILEVEEVPRSKKLYKITADLGDEKRQIVSGLKGAYEAEELVGKKVIIICNLKPAKLCGVESQGMLLAAEDDSIVSLLALDRDLPVGSKIH
- protein production: failed

Sequence: MKHSGFQAKRLIQLALPVLIAQVTQTMMGFIDTVMAGRVSAVDMAAVAVGTSLWLPAILFVQGLLMAFTPLFAHHNGANNQKAIQPLAFQGAYLALIGGLGVMVFLASAPLVLSHMNLEPQLYNLTIGYIDGILWGAPAFVLYQVLRGCSEGISYTLPTMVIGFVGLAVNIPANYIFIYGHFGIPAMGGAGCGIATALVFWAMLIAMAIYMQFHKKFAALAPFSQFHRPDFATMKKMTKLGLPIAMALFFEVSLFAIIALLLAPLGATVVASHQIALNFSAIVFMLPLSIGIAVSIRIGYYLGRDRADISAVVAKVGLLLALSLALSTAILTVLFRFQIAELYNSDPEVVVLAGSLMLMAALYQLSDSVQVVAAGALRGYKDTRSAFYITLFSYWGIGMSLGYTLAYTDFIVPAMGAHGFWTGLIAGLTSAALLFFIRLRYIQKHRVHLSLIEGDSVHH
- protein production: failed
